As a reminder, the Kd is the free concentration of one partner at which half of the binding sites on the other are occupied at equilibrium, for simple one-to-one binding. As a reminder, the IC50 is the concentration needed to halve the response being measured. A high value points to lower potency. One may read the Ki as a dissociation constant, usually derived from enzyme kinetics or from competition with a known ligand. Low values mean tighter binding, high ones weaker binding.

Experiment [1] addresses Growth hormone secretagogue receptor (Homo sapiens) (UniProt Q92847). As to conditions: cited from earlier work.
Experiment [2] concerns the target T1, ghrelin (Homo sapiens, UniProt Q9UBU3, octanoylated ghrelin).
T1 chain: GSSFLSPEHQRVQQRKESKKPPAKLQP
As to the kind of experiment: fluorescence displacement of atto520-ghrelin.

Experiment [3] deals with T1, ghrelin. The experiment is described as follows: fluorescence displacement of atto520-ghrelin (Goldstein-Barrett corrected).

For Ghrelin (from UniProt Q9UBU3), the Kd in experiment [1] was 0.00015 µM.

B1: GHS receptor (GHSR1a) (protein)
chain: MWNATPSEEPGFNLTLADLDWDASPGNDSLGDELLQLFPAPLLAGVTATCVALFVVGIAGNLLTMLVVSRFRELRTTTNLYLSSMAFSDLLIFLCMPLDLVRLWQYRPWNFGDLLCKLFQFVSESCTYATVLTITALSVERYFAICFPLRAKVVVTKGRVKLVIFVIWAVAFCSAGPIFVLVGVEHENGTDPWDTNECRPTEFAVRSGLLTVMVWVSSIFFFLPVFCLTVLYSLIGRKLWRRRRGDAVVGASLRDQNHKQTVKMLAVVVFAFILCWLPFHVGRYLFSKSFEPGSLEIAQISQYCNLVSFVLFYLSAAINPILYNIMSKKYRVAVFRLLGFEPFSQRKLSTLKDESSRAWTESSINT
B1 showed a half-maximal inhibitory concentration (IC50) in experiment [2] of 6.87 µM. In addition, the Ki in experiment [3] came to 0.01 µM.

The values are drawn from PMC5384189 (2017).
